Assay results taken from the supplement of paper PMC10899765.

Key:
Settings in all cases: 20 nM; 72 h
[1] = tested on: MCF10A; test: percent viability (nuclei count relative to siNT); higher = more viable cells
Procedure: (§1)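 After 72 h, cells were fixed and stained with Hoechst and anti-fibrillarin, and nucleoli per nucleus were counted with CellProfiler. Values are plate-adjusted percent effect for the one-nucleolus and 5+ nucleoli phenotypes, normalised to siNT (0%) and to the positive controls siNOL11 or siKIF11 (100%), as the mean of biological triplicates. Percent viability is the nuclei count relative to siNT.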

[2] = tested on: MCF10A; test: one-nucleolus phenotype percent effect (relative to siNT 0% and siNOL11 100%); higher = more cells with one nucleolus (ribosome biogenesis inhibition)
Procedure: as §1

[3] = tested on: MCF10A; test: 5+ nucleoli phenotype percent effect (relative to siNT 0% and siKIF11 100%); higher = more cells with five or more nucleoli
Procedure: as §1

Row | Sequence | percent viability [1] | one-nucleolus phenotype percent effect [2] | 5+ nucleoli phenotype percent effect [3]
1 | AGAGAUGAAGCGGGGGGGCG [hsa-miR-6088] | 91.6% | -6.8% | 6.48%
2 | UGGCCCAACCUAUUCAGUUAGU [hsa-miR-3136-3p] | 140% | -25.2% | 34.8%
3 | UAUAGGGAUUGGAGCCGUGGCG [hsa-miR-135a-3p] | 63.5% | 13.5% | 4.73%
4 | AGCCUUCCAGGAGAAAUGGAGA [hsa-miR-5581-5p] | 14.3% | 20.5% | -16.7%
5 | AAAAGUAACUGCGGUUUUUGCCU [hsa-miR-548w] | 77.2% | -28.5% | 56.1%
6 | UGAGGCCCUUGGGGCACAGUGG [hsa-miR-5008-5p] | 22.9% | 6.37% | -8.69%
7 | UGGGAUGAGGGAUUGAAGUGGA [hsa-miR-5187-5p] | 25.8% | -17.7% | 24.8%
8 | GAUUUCAGUGGAGUGAAGUUC [hsa-miR-205-3p] | 133% | -30.2% | 51.7%
9 | AAAAACUGCAAUCACUUUUGC [hsa-miR-548az-3p] | 62% | -6.63% | 7.93%
10 | ACAAAAAAAAAAGCCCAACCCUUC [hsa-miR-3613-3p] | 91.6% | -10.2% | 16.2%
11 | CCACCGGGGGAUGAAUGUCAC [hsa-miR-181d-3p] | 40.6% | 24.4% | -15.9%
12 | AGAAUUGUGGCUGGACAUCUGU [hsa-miR-219-2-3p] | 33.5% | 35.6% | -41.8%
13 | UGAGGGAGUGGAUUGUAUG [hsa-miR-6130] | 16.7% | -1.2% | -15.2%
14 | CAGGAGUGGGGGGUGGGACGU [hsa-miR-4433b-3p] | 65.1% | -5.4% | 3.45%
15 | GAGCCAGUGGUGAGACAGUGA [hsa-miR-4676-5p] | 53.3% | -15.1% | -5.34%
16 | UGUCGUGGGGCUUGCUGGCUUG [hsa-miR-4440] | 58.9% | 2.65% | -27.6%
17 | ACUGGCAGAACACUGAAGCAGC [hsa-miR-6868-5p] | 26.9% | 34.1% | -21.7%
18 | CCCUCUCUGUCCCACCCAUAG [hsa-miR-6769b-3p] | 73.7% | -27.6% | 91.5%

Row | Sequence | percent viability [1] | one-nucleolus phenotype percent effect [2] | 5+ nucleoli phenotype percent effect [3]
19 | AUCGCUGCGGUUGCGAGCGCUGU [hsa-miR-639] | 129% | -17.2% | 61.4%
20 | CACCCCCUGUUUCCUGGCCCAC [hsa-miR-4640-3p] | 127% | -11.3% | 31.4%
21 | CUCCCACAUGCAGGGUUUGCA [hsa-miR-188-3p] | 57.7% | -6.75% | 25%
22 | GACAGAGUGCCACUUACUGAA [hsa-miR-4797-5p] | 23.7% | 41.8% | -25.1%
23 | UGGGUGGUCUGGAGAUUUGUGC [hsa-miR-1293] | 7.23% | -46.3% | -9.27%
24 | GCAUUGUGCAGGGCUAUCA [hsa-miR-4289] | 35% | -8.06% | 7.06%
25 | ACGGGCAGGGCAGUGCACCCUG [hsa-miR-7112-5p] | 31.2% | 12.5% | 2.37%
26 | AGGGGUGGUGUUGGGACAGCUCCGU [hsa-miR-608] | 10.6% | 8.02% | -9.99%
27 | CGGGUAGAGAGGGCAGUGGGAGG [hsa-miR-197-5p] | 44.8% | -25.5% | 48.2%
28 | UACUCAGGAGAGUGGCAAUCAC [hsa-miR-510] | 20.5% | 41.9% | -26.8%
29 | UGAAACUGGAGCGCCUGGAGGA [hsa-miR-4738-3p] | 28.6% | 26.9% | -20.8%
30 | CCUAUUCUUGGUUACUUGCACG [hsa-miR-26a-1-3p] | 49.7% | 4.57% | -5.8%
31 | ACCUGGGUUGUCCCCUCUAG [hsa-miR-6742-3p] | 90.1% | -15.1% | 73.9%
32 | GAGUGGGGCUUCGACCCUAACC [hsa-miR-1296-3p] | 62.8% | 8.1% | -0.672%
33 | GGGUCCCGGGGAGGGGGG [hsa-miR-4281] | 100% | -17.2% | 25.6%
34 | AGGGGACCAAAGAGAUAUAUAG [hsa-miR-3144-5p] | 38.1% | -9.41% | 33.4%
35 | UGUGUCCCAUUAUUGGUGAUU [hsa-miR-3657] | 46.6% | 32.2% | -31.6%
36 | AACUCUGACCCCUUAGGUUGAU [hsa-miR-4714-5p] | 41.1% | -5.26% | -16.1%
